Experimental data taken from the DeepSol protein solubility set.

assay: soluble on expression in E. coli; label from the status in PepcDB or PDB records

Soluble on expression in E. coli, not soluble:
MGSDKIHHHHHHVEMPGTTEPLGKMVKVEGKKDEHKGDFFLTTVQIARANLATMIYSHFNSFTSIYSEQEMTGGLNDAQFNRVNQFYMETAQNTAIYQAFKLANKPYELKYEGVYVLDIAKNSTFKNKLELADTITAVNGQQFTSSADMIAYVSKQKVGDSVTIEYTRIDGTKHKSTGKYIKIANGKTGIGISLVDHTEVVTTPKVTVNAGSIGGPSAGMMFTLEIYSQLTGKDLRNGREIAGTGTIEHDGSIGQIGGVDKKVATASKEGAKVFLVPDSGTKKESSNNYLGAKTAAKKLKTKMKIVPVKTIQDALDYLEK, MGSDKIHHHHHHVEYPLPAKNSNLVGENQYYVVPEGKLTLEAIATKFQLGLTNLLEANPGVDPFLPKPGSTLVIPHQLILPNAPREGIVINVAEMRLYYYPKGKNIVEVLPIGIGQIGKDTPEKWVTTVQRKRANPTWTPTPRIRKEYLAKGEVLPAVWPAGPDNPMGLFALYIGNLYAIHGTNATFGIGLRISQGCIRLRDADIEHLFNSVPEGTRVEFTNQPIKASEEPDGNRYLEVHQPLSRTMAEYESAEPVGLSMHRDIAKFVAHADTDSFVLKRLLEQRNGIPTRINQ, MGSDKIHHHHHHVNVPTEFDINVLRADFDKTRLPRSRAQQMPGKMYTSSEVAALEKKRIFMDTWLCAGREEEIANPGDYMTREIASEPFVLSRDKEGKVHAFLNMCLHRGVPVAEGSGNARGFSCPYHAWYYDLQGTLLAAPLMEQSEANLKNCRLKPMRLALWRGWIFVSFNPDAMPFETFIAPFEENLWWFKSDECRLSERVVLQIDCNWKLLVENLIDIYHVPVLHKASFGGFLKSDKEKLSFNLLPRGGWYYEQKARPHSKSGQQLFPTLPWLEGMDSGTSMKAGIFPNLNLSLRFDSLRMWQVWPTSTGKSELHLYSLFMPAAFEDPDFQKHYEEYKSFLLGAIVNEDGPMVVKLQQAMGSEFYAPGPLSHLEGAVHHLMNYYLDVVSGEDRND, MGSDKIHHHHHHVPVADRVSKVDVIAFRLAAHHLDERLGEGGLLDAAGRCGIQNSPPGSALLALHARVRNLTQQQVAGAVAKEKSLLQTWCMRGSPFYFPALDAPVFTTGVLPPTEEAMRHLVVGVEPALDKLGISLTEAVELADAEIHEVLSGRRLAINELGAEIATRIARRLPKRQRDIWEDNGPYAPGQPLGEGVVHFCVRILTLQRVLCLAPRVGNQSPFVLVDEWLGDPIPDIDPELARAELLRRYLRCYGPSTRGDFASWAGVHAGDTGPWWNLVGTELTPVEFGGTSWILTEDLDALRSAPAPTGVRLLPPGDPYTQMRDRETIVDKKYHREVWRMAGGPGTVLAGGKITGTWRSRKSGRKLALTITTFGSLPDRDRTSLQGEAGQVAALRGASSVDVAFGTY, MGSDKIHHHHHHVQTPALIIVTGHPATGKTTLSQALATGLRLPLLSKDAFKEVMFDGLGWSDREWSRRVGATAIMMLYHTAATILQSGQSLIMESNFRVDLDTERMQNLHTIAPFTPIQIRCVASGDVLVERILSRIAQGARHPGHCDDRSPADLELVRSRGDIPPLPLGGPLLTVDTTFPEQIDMNAIVQWVRQHLQSGTAFL, MGSDKIHHHHHHVRCLNEEIARKANREDECKGAFWEGRFKSQALLDEQALLACMMYVDLNPIRAGIADSLQSSDFTSIQERISALKQVNNTIISPQAPVQSAKNKPQTINKSLAKFDAATHSSQQTGIPFHFADYLELIDWTGRTIRHDKKGFIDNQRPKLLNELGIASDAWLSSAKDFRRQYSGISGRWDAMCAFKLQQGGKWCRGKSSCEALHPNQPLG, MGSDKIHHHHHHVRVNVKSHGPRATFPAAPCLHRNPKVKLRLFPQEPAGLHLLSQMARQIVLATATLAEILGVPATEHNRLVEDMHDHEAKSAELHFALLTHMRTSFVNPLPREDMYALSRYLNEAMEKLDAAAELVALYKLERLPRRAADQLEIISRQAELTVDAMRQLNNLDDLEDYWIEILRLAKRAERTHRVWVADMIKDMKWAQYARNRDIANQLVEVTKDMRRIATQVGSIIVKES
